Assay results taken from patent publication US5885772.

Molecular target: F-actin
Test: cosedimentation with F-actin through a sucrose cushion, SDS-PAGE

## MacMARCKS
  Kd: 53 nM
  stoichiometry (actin monomers per MacMARCKS): 12
